Assays:
[1] = biological target: membranous subcomplex VO (ICL12) of the Thermus thermophilus rotary ATPase (Thermus thermophilus) (UniProt P74902); experiment: native MS
[2] = biological target: subunit L of the Thermus thermophilus rotary ATPase (L12 membrane ring) (Thermus thermophilus); experiment: native MS

Substance: peripheral stalk (subunits E and G) of the Thermus thermophilus rotary ATPase (from UniProt P74901 1-188) (complex)
- stoichiometry N [1]: 2

Substance: subunit L of the Thermus thermophilus rotary ATPase (L12 membrane ring) (natural protein)
- stoichiometry N [2]: 12

Reference: article PMC3927129
